Measurements published in patent US20190077860A1 (EISAI R AND D MANAGEMENT, published 2019).

T1: human EphB2 extracellular region-SEAP-His protein (human, UniProt P29323 19-543)
T1 construct: extracellular domain; also called hEphB2-SEAP-His
T1 sequence (looked up): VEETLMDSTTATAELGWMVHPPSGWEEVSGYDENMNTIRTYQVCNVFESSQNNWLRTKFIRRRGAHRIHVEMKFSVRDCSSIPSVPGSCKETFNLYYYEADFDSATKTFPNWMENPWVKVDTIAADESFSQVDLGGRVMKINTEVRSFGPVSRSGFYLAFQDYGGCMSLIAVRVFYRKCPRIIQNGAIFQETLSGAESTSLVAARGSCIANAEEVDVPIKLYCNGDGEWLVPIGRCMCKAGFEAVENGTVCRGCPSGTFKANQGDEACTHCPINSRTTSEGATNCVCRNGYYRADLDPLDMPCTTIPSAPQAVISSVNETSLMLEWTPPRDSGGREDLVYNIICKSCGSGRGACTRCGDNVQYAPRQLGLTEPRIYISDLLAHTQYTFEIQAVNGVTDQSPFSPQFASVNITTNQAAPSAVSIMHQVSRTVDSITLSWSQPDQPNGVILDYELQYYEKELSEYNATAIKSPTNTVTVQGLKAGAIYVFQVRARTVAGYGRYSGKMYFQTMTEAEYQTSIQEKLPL


Legend:
[1] = target: T1, human EphB2 extracellular …; test: ELISA
Method: Each well of a 96-well plate (Nunc) was coated with a rabbit anti-6-His antibody (Bethyl Laboratories). Each well was […] After washing with 0.05% Tween 20/PBS (Nacalai Tesque) three times, the SEAP-His protein of human EphA1, EphA2, EphA3, EphA4, EphA5, EphA6, EphA7, EphA8, EphA10, EphB1, EphB2, EphB3, EphB4, or EphB6 was added (final concentration: 1 nM) to each well and incubated at room temperature for 1 hour. After washing three times, the humanized antibody was added to each well and incubated at room temperature for 1 hour. After washing three times, a horseradish peroxidase-labeled donkey […] antibody (Jackson ImmunoResearch Laboratories) was added thereto and incubated at room temperature for 1 hour. After washing three times, TMB Microwell Peroxidase Substrate System (Kirkegaard & Perry Laboratories (KPL)) was added to each well. After confirmation of moderate color development, an equal amount of a reaction stopping solution (1N H₂SO₄, Wako Pure Chemical Industries) was added to each well. The absorbance at 450 nm was read using a microplate reader (Thermo Fisher Scientific).

[2] = target: T2, human EphA4 extracellular region-SEAP-His protein (human, UniProt P54764 20-547); test: SPR, Ab captured
T2 construct: also called hEphA4-SEAP-His
Method: The binding affinity of each anti-EphA4 monoclonal humanized antibody obtained in Example 16 for human EphA4 was determined by surface plasmon resonance (SPR) using Biacore T200 (GE Healthcare). First, for the assay of antibody A, a rat anti-mouse IgG₁ antibody produced with a conventional method by immunizing rat with mouse IgG₁ antibody was immobilized on sensor chip CM5. The immobilization of the rat anti-mouse IgG1 antibody on sensor chip CM5 was performed by the amine coupling method using N-hydroxysuccinimide (NHS) and N-ethyl-N′-(3-dimethylaminopropyl)carbodiimide hydrochloride (EDC). Ethanolamine was used in blocking (the sensor chip and the reagents for immobilization were all manufactured by GE Healthcare). The antibody was diluted with a buffer solution for immobilization (10 mM sodium acetate, pH 4.5) and immobilized on the sensor chip according to the protocol attached to Biacore T200. For the assay of each humanized monoclonal antibody, a protein A chip (GE Healthcare, 29-1383-03) was used. Antibody A or the humanized monoclonal antibody was diluted with a running buffer solution HBS-EP (GE Healthcare), injected onto only flow cell 2 for 120 seconds, and captured (captured amount: approximately 30 to 60 RU). Subsequently, human EphA4 extracellular region-SEAP-His protein serially diluted in the range of 50, 16.7, 5.6, 1.9, and 0.6 nM using HBS-EP was sequentially added from the lower toward higher concentration sides without regeneration operation. Binding reaction curves were sequentially observed at the time of the addition (association phase, for 120 sec) and after the completion of the addition (dissociation phase, for 900 sec). After the completion of each observation, the sensor chip was regenerated by the addition of 3 M MgCl₂ (for 60 sec) or 10 mM Glycine-HCl pH 1.5 (for 30 sec). The obtained binding reaction curves were subjected to fitting analysis with 1:1 binding models using software BIA evaluation attached to the system to calculate the affinity (KD=kd/ka) for human EphA4 (Table 6).

[3] = target: T2, human EphA4 extracellular …; test: competition ELISA, competitor human Ephrin A5-Fc
Method: Each anti-EphA4 monoclonal humanized antibody obtained in Example 16 was evaluated for its inhibitory activity against the binding between human EphA4 and its human ligand according to the following steps. Each well of a 96-well plate (Nunc) was coated with an anti-alkaline phosphatase antibody (Thermo Fisher Scientific). After incubation overnight at 4° C., each well was blocked with 1% BlockAce (DS Pharma Biomedical) at room temperature for 1 hour. After washing with 0.05% Tween 20/PBS (Thermo Fisher Scientific) three times, the human EphA4 extracellular region-SEAP-His protein obtained by the method of Example 2 was added (final concentration: 10 nM) to each well and incubated at room temperature for 1 hour. After washing three times, a ligand and each serially diluted humanized antibody of antibody A (0, 0.003, 0.01, 0.03, 0.1, 0.3, 1, 3, 10, 30, 100, 300, 1000, and 3000 nM) were added to each well. The ligand used was biotinylated human Ephrin A5-Fc chimera (R&D Systems, final concentration: 0.7 nM). After incubation at room temperature for 1 hour and subsequent washing three times, horseradish peroxidase-labeled streptavidin (GE Healthcare) was added thereto and incubated at room temperature for 1 hour. After washing three times, a TMBZ (3,3′,5,5′-tetramethylbenzidine, Sigma-Aldrich) solution was added to each well and incubated at room temperature for 2 minutes. An equal amount of a reaction stopping solution (1N H₂SO₄, Wako Pure Chemical Industries) was added to each well. The absorbance at 450 nm was read using a microplate reader (PerkinElmer).

T2 sequence (P54764 20-547): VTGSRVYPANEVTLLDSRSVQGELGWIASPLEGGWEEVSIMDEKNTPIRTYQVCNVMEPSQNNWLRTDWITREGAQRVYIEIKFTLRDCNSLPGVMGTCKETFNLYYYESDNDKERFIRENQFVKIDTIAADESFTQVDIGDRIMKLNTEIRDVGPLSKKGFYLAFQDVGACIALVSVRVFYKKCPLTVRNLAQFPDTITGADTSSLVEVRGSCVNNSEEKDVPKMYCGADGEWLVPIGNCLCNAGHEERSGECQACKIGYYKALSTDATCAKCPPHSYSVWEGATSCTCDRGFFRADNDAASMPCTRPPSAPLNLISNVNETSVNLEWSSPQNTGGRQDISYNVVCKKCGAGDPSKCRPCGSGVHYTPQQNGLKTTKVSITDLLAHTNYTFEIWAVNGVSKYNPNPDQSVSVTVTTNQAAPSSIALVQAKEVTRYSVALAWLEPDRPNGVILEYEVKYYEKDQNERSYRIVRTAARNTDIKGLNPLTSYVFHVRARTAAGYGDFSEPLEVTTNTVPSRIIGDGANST

Binder | A450 as % of hEphA4-SEAP-His [1] | Kd [2] | koff [2] | kon [2] | IC50 [3]
humanized antibody No. 140 (antibody, human IgG2, human Ig kappa; also called L1-4/HA2) heavy: QVQLVQSGSELKKPGASVKVSCKASGYTFTDYSMHWVRQAPGQGLKWMGWINTETGEPTYAQGFTGRFVFSLDTSVSTAYLQISSLKAEDTAVYYCARIPLYYYGSRYWYFDVWGQGTTVTVSSASTKGPSVFPLAPSSRSTSESTAALGCLVKDYFPEPVTVSWNSGALTSGVHTFPAVLQSSGLYSLSSVVTVPSSNFGTQTYTCNVDHKPSNTKVDKTVERKSCVECPPCPAPPAAAPSVFLFPPKPKDTLMISRTPEVTCVVVDVSHEDPEVQFNWYVDGVEVHNAKTKPREEQFNSTFRVVSVLTVVHQDWLNGKEYKCKVSNKGLPAPIEKTISKTKGQPREPQVYTLPPSREEMTKNQVSLTCLVKGFYPSDIAVEWESNGQPENNYKTTPPMLDSDGSFFLYSKLTVDKSRWQQGNVFSCSVMHEALHNHYTQKSLSLSPG light: DIQMTQSPSSLSASVGDRVTITCRASENIYRNLAWYQQKPGKAPKLLVYAATNLADGVPSRFSGSGSGTDYTLTISSLQPEDFATYYCQHFWGTPWTFGQGTKVEIKRTVAAPSVFIFPPSDEQLKSGTASVVCLLNNFYPREAKVQWKVDNALQSGNSQESVTEQDSKDSTYSLSSTLTLSKADYEKHKVYACEVTHQGLSSPVTKSFNRGEC | 5.3% | 1.4 nM | 0.00043 s⁻¹ | 320000 M⁻¹ s⁻¹ | 2.4 nM
humanized antibody No. 141 (antibody, human IgG2, human Ig kappa; also called L1-4/HK1) heavy: QVQLVQSGSELKKPGASVKVSCKASGYTFTDYSMHWVRQAPGQGLEWMGWINTETGEPTYADDFKGRFVFSLDTSVSTAYLQISSLKAEDTAVYYCARIPLYYYGSRYWYFDVWGQGTTVTVSSASTKGPSVFPLAPSSRSTSESTAALGCLVKDYFPEPVTVSWNSGALTSGVHTFPAVLQSSGLYSLSSVVTVPSSNFGTQTYTCNVDHKPSNTKVDKTVERKSCVECPPCPAPPAAAPSVFLFPPKPKDTLMISRTPEVTCVVVDVSHEDPEVQFNWYVDGVEVHNAKTKPREEQFNSTFRVVSVLTVVHQDWLNGKEYKCKVSNKGLPAPIEKTISKTKGQPREPQVYTLPPSREEMTKNQVSLTCLVKGFYPSDIAVEWESNGQPENNYKTTPPMLDSDGSFFLYSKLTVDKSRWQQGNVFSCSVMHEALHNHYTQKSLSLSPG light: DIQMTQSPSSLSASVGDRVTITCRASENIYRNLAWYQQKPGKAPKLLVYAATNLADGVPSRFSGSGSGTDYTLTISSLQPEDFATYYCQHFWGTPWTFGQGTKVEIKRTVAAPSVFIFPPSDEQLKSGTASVVCLLNNFYPREAKVQWKVDNALQSGNSQESVTEQDSKDSTYSLSSTLTLSKADYEKHKVYACEVTHQGLSSPVTKSFNRGEC | 5.2% | 1.6 nM | 0.00062 s⁻¹ | 390000 M⁻¹ s⁻¹ | 3 nM

The next lines start with the values.

A450 as % of hEphA4-SEAP-His [1] | Kd [2] | koff [2] | kon [2] | IC50 [3] | Binder
5.7% | 1.4 nM | 0.00053 s⁻¹ | 370000 M⁻¹ s⁻¹ | 3.3 nM | humanized antibody No. 139 (antibody, human IgG2, human Ig kappa; also called L1-4/HA1) heavy: QVQLVQSGSELKKPGASVKVSCKASGYTFTDYSMHWVRQAPGQGLEWMGWINTETGEPTYAQGFTGRFVFSLDTSVSTAYLQISSLKAEDTAVYYCARIPLYYYGSRYWYFDVWGQGTTVTVSSASTKGPSVFPLAPSSRSTSESTAALGCLVKDYFPEPVTVSWNSGALTSGVHTFPAVLQSSGLYSLSSVVTVPSSNFGTQTYTCNVDHKPSNTKVDKTVERKSCVECPPCPAPPAAAPSVFLFPPKPKDTLMISRTPEVTCVVVDVSHEDPEVQFNWYVDGVEVHNAKTKPREEQFNSTFRVVSVLTVVHQDWLNGKEYKCKVSNKGLPAPIEKTISKTKGQPREPQVYTLPPSREEMTKNQVSLTCLVKGFYPSDIAVEWESNGQPENNYKTTPPMLDSDGSFFLYSKLTVDKSRWQQGNVFSCSVMHEALHNHYTQKSLSLSPG light: DIQMTQSPSSLSASVGDRVTITCRASENIYRNLAWYQQKPGKAPKLLVYAATNLADGVPSRFSGSGSGTDYTLTISSLQPEDFATYYCQHFWGTPWTFGQGTKVEIKRTVAAPSVFIFPPSDEQLKSGTASVVCLLNNFYPREAKVQWKVDNALQSGNSQESVTEQDSKDSTYSLSSTLTLSKADYEKHKVYACEVTHQGLSSPVTKSFNRGEC
5.6% | 1.5 nM | 0.0005 s⁻¹ | 340000 M⁻¹ s⁻¹ | 3.7 nM | humanized antibody No. 142 (antibody, human IgG2, human Ig kappa; also called L1-4/HK2) heavy: QVQLVQSGSELKKPGASVKVSCKASGYTFTDYSMHWVRQAPGQGLKWMGWINTETGEPTYADDFKGRFVFSLDTSVSTAYLQISSLKAEDTAVYYCARIPLYYYGSRYWYFDVWGQGTTVTVSSASTKGPSVFPLAPSSRSTSESTAALGCLVKDYFPEPVTVSWNSGALTSGVHTFPAVLQSSGLYSLSSVVTVPSSNFGTQTYTCNVDHKPSNTKVDKTVERKSCVECPPCPAPPAAAPSVFLFPPKPKDTLMISRTPEVTCVVVDVSHEDPEVQFNWYVDGVEVHNAKTKPREEQFNSTFRVVSVLTVVHQDWLNGKEYKCKVSNKGLPAPIEKTISKTKGQPREPQVYTLPPSREEMTKNQVSLTCLVKGFYPSDIAVEWESNGQPENNYKTTPPMLDSDGSFFLYSKLTVDKSRWQQGNVFSCSVMHEALHNHYTQKSLSLSPG light: DIQMTQSPSSLSASVGDRVTITCRASENIYRNLAWYQQKPGKAPKLLVYAATNLADGVPSRFSGSGSGTDYTLTISSLQPEDFATYYCQHFWGTPWTFGQGTKVEIKRTVAAPSVFIFPPSDEQLKSGTASVVCLLNNFYPREAKVQWKVDNALQSGNSQESVTEQDSKDSTYSLSSTLTLSKADYEKHKVYACEVTHQGLSSPVTKSFNRGEC
5.2% | 1.3 nM | 0.00043 s⁻¹ | 330000 M⁻¹ s⁻¹ | 2.9 nM | humanized antibody No. 138 (antibody, human IgG2, human Ig kappa; also called L1-4/HA4) heavy: QIQLVQSGSELKKPGASVKVSCKASGYTFTDYSMHWVRQAPGQGLKWMGWINTETGEPTYAQGFTGRFVFSLDTSVSTAYLQISSLKAEDTAVYYCARIPLYYYGSRYWYFDVWGQGTTVTVSSASTKGPSVFPLAPSSRSTSESTAALGCLVKDYFPEPVTVSWNSGALTSGVHTFPAVLQSSGLYSLSSVVTVPSSNFGTQTYTCNVDHKPSNTKVDKTVERKSCVECPPCPAPPAAAPSVFLFPPKPKDTLMISRTPEVTCVVVDVSHEDPEVQFNWYVDGVEVHNAKTKPREEQFNSTFRVVSVLTVVHQDWLNGKEYKCKVSNKGLPAPIEKTISKTKGQPREPQVYTLPPSREEMTKNQVSLTCLVKGFYPSDIAVEWESNGQPENNYKTTPPMLDSDGSFFLYSKLTVDKSRWQQGNVFSCSVMHEALHNHYTQKSLSLSPG light: DIQMTQSPSSLSASVGDRVTITCRASENIYRNLAWYQQKPGKAPKLLVYAATNLADGVPSRFSGSGSGTDYTLTISSLQPEDFATYYCQHFWGTPWTFGQGTKVEIKRTVAAPSVFIFPPSDEQLKSGTASVVCLLNNFYPREAKVQWKVDNALQSGNSQESVTEQDSKDSTYSLSSTLTLSKADYEKHKVYACEVTHQGLSSPVTKSFNRGEC
